# Experimental data published in PMC10182996.
# Target: CPn0677-His (recombinant full-length CPn0677 with C-terminal 10His tag) (Chlamydia pneumoniae GiD)
# Experiment: SEC; Superdex 200 Increase 10/300 GL, 4 °C, 0.5 ml/min, 5.2 mg CPn0677 (5 mg/ml) in PBS pH 6.0, against standard proteins
substance,measurement,value
CPn0677-His (recombinant full-length CPn0677 with C-terminal 10His tag) (natural protein),stoichiometry N,2
